B1: Thioredoxin-like protein 4B (Homo sapiens), Q9NX01 (parent)
chain: MSFLLPKLTSKKEVDQAIKSTAEKVLVLRFGRDEDPVCLQLDDILSKTSSDLSKMAAIYLVDVDQTAVYTQYFDISYIPSTVFFFNGQHMKVDYGSPDHTKFVGSFKTKQDFIDLIEVIYRGAMRGKLIVQSPIDPKNIPKYDLLYQDI
B2: E3 ubiquitin-protein ligase RNF8 (Homo sapiens), O76064 (parent)
chain: MGEPGFFVTGDRAGGRSWCLRRVGMSAGWLLLEDGCEVTVGRGFGVTYQLVSKICPLMISRNHCVLKQNPEGQWTIMDNKSLNGVWLNRARLEPLRVYSIHQGDYIQLGVPLENKENAEYEYEVTEEDWETIYPCLSPKNDQMIEKNKELRTKRKFSLDELAGPGAEGPSNLKSKINKVSCESGQPVKSQGKGEVASTPSDNLDPKLTALEPSKTTGAPIYPGFPKVTEVHHEQKASNSSASQRSLQMFKVTMSRILRLKIQMQEKHEAVMNVKKQTQKGNSKKVVQMEQELQDLQSQLCAEQAQQQARVEQLEKTFQEEEQHLQGLEIAQGEKDLKQQLAQALQEHWALMEELNRSKKDFEAIIQAKNKELEQTKEEKEKMQAQKEEVLSHMNDVLENELQCIICSEYFIEAVTLNCAHSFCSYCINEWMKRKIECPICRKDIKSKTYSLVLDNCINKMVNNLSSEVKERRIVLIRERKAKRLF
B3: Keratin, type I cytoskeletal 18 (Homo sapiens), P05783 (parent)
chain: MSFTTRSTFSTNYRSLGSVQAPSYGARPVSSAASVYAGAGGSGSRISVSRSTSFRGGMGSGGLATGIAGGLAGMGGIQNEKETMQSLNDRLASYLDRVRSLETENRRLESKIREHLEKKGPQVRDWSHYFKIIEDLRAQIFANTVDNARIVLQIDNARLAADDFRVKYETELAMRQSVENDIHGLRKVIDDTNITRLQLETEIEALKEELLFMKKNHEEEVKGLQAQIASSGLTVEVDAPKSQDLAKIMADIRAQYDELARKNREELDKYWSQQIEESTTVVTTQSAEVGAAETTLTELRRTVQSLEIDLDSMRNLKASLENSLREVEARYALQMEQLNGILLHLESELAQTRAEGQRQAQEYEALLNIKVKLEAEIATYRRLLEDGEDFNLGDALDSSNSMQTIQKTTTRRIVDGKVVSETNDTKVLRH
B4: Protein FAM13C (Homo sapiens), Q8NE31 (parent)
chain: MFSCFCFSLQDNSFSSTTVTECDEDPVSLHEDQTDCSSLRDENNKENYPDAGALVEEHAPPSWEPQQQNVEATVLVDSVLRPSMGNFKSRKPKSIFKAESGRSHGESQETEHVVSSQSECQVRAGTPAHESPQNNAFKCQETVRLQPRIDQRTAISPKDAFETRQDLNEEEAAQVHGVKDPAPASTQSVLADGTDSADPSPVHKDGQNEADSAPEDLHSVGTSRLLYHITDGDNPLLSPRCSIFSQSQRFNLDPESAPSPPSTQQFMMPRSSSRCSCGDGKEPQTITQLTKHIQSLKRKIRKFEEKFEQEKKYRPSHGDKTSNPEVLKWMNDLAKGRKQLKELKLKLSEEQGSAPKGPPRNLLCEQPTVPRENGKPEAAGPEPSSSGEETPDAALTCLKERREQLPPQEDSKVTKQDKNLIKPLYDRYRIIKQILSTPSLIPTIQEEEDSDEDRPQGSQQPSLADPASHLPVGDHLTYSNETEPVRALLPDEKKEVKPPALSMSNLHEATMPVLLDHLRETRADKKRLRKALREFEEQFFKQTGRSPQKEDRIPMADEYYEYKHIKAKLRLLEVLISKQDVAKTI
partner: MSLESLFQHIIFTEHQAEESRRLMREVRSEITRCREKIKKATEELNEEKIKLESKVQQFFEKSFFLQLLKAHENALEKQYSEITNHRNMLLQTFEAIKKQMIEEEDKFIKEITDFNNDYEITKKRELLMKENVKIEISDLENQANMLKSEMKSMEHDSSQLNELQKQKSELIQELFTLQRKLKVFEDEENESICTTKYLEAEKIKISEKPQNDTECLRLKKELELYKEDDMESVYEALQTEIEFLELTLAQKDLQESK
B5: Pyruvate dehydrogenase protein X component, mitochondrial (Homo sapiens), O00330 (parent)
chain: MAASWRLGCDPRLLRYLVGFPGRRSVGLVKGALGWSVSRGANWRWFHSTQWLRGDPIKILMPSLSPTMEEGNIVKWLKKEGEAVSAGDALCEIETDKAVVTLDASDDGILAKIVVEEGSKNIRLGSLIGLIVEEGEDWKHVEIPKDVGPPPPVSKPSEPRPSPEPQISIPVKKEHIPGTLRFRLSPAARNILEKHSLDASQGTATGPRGIFTKEDALKLVQLKQTGKITESRPTPAPTATPTAPSPLQATAGPSYPRPVIPPVSTPGQPNAVGTFTEIPASNIRRVIAKRLTESKSTVPHAYATADCDLGAVLKVRQDLVKDDIKVSVNDFIIKAAAVTLKQMPDVNVSWDGEGPKQLPFIDISVAVATDKGLLTPIIKDAAAKGIQEIADSVKALSKKARDGKLLPEEYQGGSFSISNLGMFGIDEFTAVINPPQACILAVGRFRPVLKLTEDEEGNAKLQQRQLITVTMSSDSRVVDDELATRFLKSFKANLENPIRLA

Variants of: B1
Conditions: with itf2_human TCF4, P15884
Sequence of itf2_human TCF4, P15884 (P15884 whole entry): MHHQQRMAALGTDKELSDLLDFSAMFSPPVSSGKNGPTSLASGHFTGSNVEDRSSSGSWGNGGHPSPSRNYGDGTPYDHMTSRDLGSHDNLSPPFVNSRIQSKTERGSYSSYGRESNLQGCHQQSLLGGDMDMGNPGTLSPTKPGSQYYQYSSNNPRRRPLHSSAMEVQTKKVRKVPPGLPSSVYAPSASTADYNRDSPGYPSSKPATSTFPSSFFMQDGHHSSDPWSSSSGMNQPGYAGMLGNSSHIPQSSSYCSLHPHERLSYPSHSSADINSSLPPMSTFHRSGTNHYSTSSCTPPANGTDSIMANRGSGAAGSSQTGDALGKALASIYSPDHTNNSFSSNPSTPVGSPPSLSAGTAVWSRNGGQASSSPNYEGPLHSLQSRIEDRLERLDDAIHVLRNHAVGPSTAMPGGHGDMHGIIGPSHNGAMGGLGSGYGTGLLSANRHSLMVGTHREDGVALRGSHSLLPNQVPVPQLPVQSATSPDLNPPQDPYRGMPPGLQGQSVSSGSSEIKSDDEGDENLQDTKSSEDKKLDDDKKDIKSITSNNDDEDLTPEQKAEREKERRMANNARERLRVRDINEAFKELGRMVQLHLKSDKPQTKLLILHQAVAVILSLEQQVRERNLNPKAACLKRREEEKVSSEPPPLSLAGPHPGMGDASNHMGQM

| effect of a mutation on the interaction | Variant |
| --- | --- |
| with no effect | MSFLLPKLTSKKEVDQAIKSTAEKVLVLRFGRDEDPVCLQLDDILSKTSSDLSKMAAIYLVDVDQTAVYTQYFDISYIPSTVFFFNGQHMKVDYGSPDHTKFVGSFKTKQDFIDLIEVMYRGAMRGKLIVQSPIDPKNIPKYDLLYQDI [I119M] |

Variants of: B2
Conditions: with sept3_human SEPTIN3, Q9UH03
Sequence of sept3_human SEPTIN3, Q9UH03 (Q9UH03 whole entry): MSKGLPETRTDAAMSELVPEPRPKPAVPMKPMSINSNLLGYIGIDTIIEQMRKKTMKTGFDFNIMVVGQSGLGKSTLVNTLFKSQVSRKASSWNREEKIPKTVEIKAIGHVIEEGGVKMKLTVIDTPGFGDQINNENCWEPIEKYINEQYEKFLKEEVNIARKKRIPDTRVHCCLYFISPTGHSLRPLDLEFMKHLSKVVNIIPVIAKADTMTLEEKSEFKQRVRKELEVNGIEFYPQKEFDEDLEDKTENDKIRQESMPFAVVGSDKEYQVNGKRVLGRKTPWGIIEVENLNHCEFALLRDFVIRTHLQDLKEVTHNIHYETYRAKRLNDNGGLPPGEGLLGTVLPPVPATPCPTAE

| effect of a mutation on the interaction | Variant |
| --- | --- |
| with no effect | MGEPGFFVTGDRAGGRSWCLRRVGMSAGWLLLEDGCEVTVGRGFGVTYQLVSKICPLMISRNHCVLKQNPEGQWTIMDNKSLNGVWLNRARLEPLRVYSIHQGDYIQLGVPLENKENAEYEYEVTEEDWETIYPCLSPKNDQMIEKNKELRTKRKFSLDELAGPGAEGPSNLKSKINKVSCESGQPVKSQGKGEVASTPSDNLDPKLTALEPSKTTGAPIYPGFPKVTEVHHEQKASNSSASQRSLQMFKVTMSRILRLKIQMQEKHEAVMNVKKQTQKGNSKKVVQMEQELQDLQSQLCAEQAQQQARLEQLEKTFQEEEQHLQGLEIAQGEKDLKQQLAQALQEHWALMEELNRSKKDFEAIIQAKNKELEQTKEEKEKMQAQKEEVLSHMNDVLENELQCIICSEYFIEAVTLNCAHSFCSYCINEWMKRKIECPICRKDIKSKTYSLVLDNCINKMVNNLSSEVKERRIVLIRERKAKRLF [V310L] |

Variants of: B2
Conditions: with wasl_human WASL

| effect of a mutation on the interaction | Variant |
| --- | --- |
| with no effect | MGEPGFFVTGDRAGGRSWCLRRVGMSAGWLLLEDGCEVTVGRGFGVTYQLVSKICPLMISRNHCVLKQNPEGQWTIMDNKSLNGVWLNRARLEPLRVYSIHQGDYIQLGVPLENKENAEYEYEVTEEDWETIYPCLSPKNDQMIEKNKELRTKRKFSLDELAGPGAEGPSNLKSKINKVSCESGQPVKSQGKGEVASTPSDNLDPKLTALEPSKTTGAPIYPGFPKVTEVHHEQKASNSSASQRSLQMFKVTMSRILRLKIQMQEKHEAVMNVKKQTQKGNSKKVVQMEQELQDLQSQLCAEQAQQQARLEQLEKTFQEEEQHLQGLEIAQGEKDLKQQLAQALQEHWALMEELNRSKKDFEAIIQAKNKELEQTKEEKEKMQAQKEEVLSHMNDVLENELQCIICSEYFIEAVTLNCAHSFCSYCINEWMKRKIECPICRKDIKSKTYSLVLDNCINKMVNNLSSEVKERRIVLIRERKAKRLF [V310L] |

Variants of: B3
Conditions: with KRT15, P19012
Sequence of KRT15, P19012 (P19012 whole entry): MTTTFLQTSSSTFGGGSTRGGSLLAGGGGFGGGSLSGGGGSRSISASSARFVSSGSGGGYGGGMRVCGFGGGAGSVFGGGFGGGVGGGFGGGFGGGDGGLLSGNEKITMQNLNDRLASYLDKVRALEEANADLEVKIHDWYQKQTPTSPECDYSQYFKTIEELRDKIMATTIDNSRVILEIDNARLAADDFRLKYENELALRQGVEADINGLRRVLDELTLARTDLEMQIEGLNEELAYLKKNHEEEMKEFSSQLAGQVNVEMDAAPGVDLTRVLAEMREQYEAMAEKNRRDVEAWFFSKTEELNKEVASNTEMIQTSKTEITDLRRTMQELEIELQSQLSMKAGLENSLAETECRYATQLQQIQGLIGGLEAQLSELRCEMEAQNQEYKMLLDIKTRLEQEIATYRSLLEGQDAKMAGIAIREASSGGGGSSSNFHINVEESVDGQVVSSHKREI

| effect of a mutation on the interaction | Variant |
| --- | --- |
| with no effect | MSFTTRSTFSTNYRSLGSVQAPSYGARPVSSAASVYAGAGGSGSRISVSRSTSFRGGMGSGGLATGIAGGLAGMGGIQNEKETMQSLNDRLASYLDRVRSLETENRRLESKIREHLEKKGPQVRDWSHYFKIIEDLRAQIFANTVDNARVVLQIDNARLAADDFRVKYETELAMRQSVENDIHGLRKVIDDTNITRLQLETEIEALKEELLFMKKNHEEEVKGLQAQIASSGLTVEVDAPKSQDLAKIMADIRAQYDELARKNREELDKYWSQQIEESTTVVTTQSAEVGAAETTLTELRRTVQSLEIDLDSMRNLKASLENSLREVEARYALQMEQLNGILLHLESELAQTRAEGQRQAQEYEALLNIKVKLEAEIATYRRLLEDGEDFNLGDALDSSNSMQTIQKTTTRRIVDGKVVSETNDTKVLRH [I150V] |

Variants of: B4
Conditions: with cc172_human CCDC172, P0C7W6

| effect of a mutation on the interaction | Variant |
| --- | --- |
| with no effect | P147S |

Variants of: B5
Conditions: with atrap_human AGTRAP

| effect of a mutation on the interaction | Variant |
| --- | --- |
| with no effect | MAASWRLGCDPRLLRYLVGFPGRRSVGLVKGALGWSVSRGANWRWFHSTQWLRGDPIKILMPSLSPTMEEGNIVKWLKKEGEAVSAGDALCEIETDKAVVTLDASDDGILAKIVVEEGSKNIRLGSLIGLIVEEGEDWKHVEIPKDVGPPPPVSKPSEPRPSPEPQISIPVKKEHIPGTLRFRLSPAARNILEKHSLDASQGTATGPRGIFTKEDALKLVQLKQTGKITESRPTPAPTATPTAPSPLQATAGPSYPRPVIPPVSTPGQPSAVGTFTEIPASNIRRVIAKRLTESKSTVPHAYATADCDLGAVLKVRQDLVKDDIKVSVNDFIIKAAAVTLKQMPDVNVSWDGEGPKQLPFIDISVAVATDKGLLTPIIKDAAAKGIQEIADSVKALSKKARDGKLLPEEYQGGSFSISNLGMFGIDEFTAVINPPQACILAVGRFRPVLKLTEDEEGNAKLQQRQLITVTMSSDSRVVDDELATRFLKSFKANLENPIRLA [N270S] |

Reference: IntAct's records for PubMed 31515488
